Laboratory results: patent US11835506 (RADIUS HEALTH, dated 2023)

Target: PTH receptors
Assay: cell-based or functional assay

B1: (beta-Asp10) abaloparatide ([b-Asp10, Glu22,25, Leu23,28,31, Aib29, Lys26,30]hPTHrP(1-34)NH2) (peptide)
peptide: AVSEHQLLHXKGKSIQDLRRRELLEKLLXKLHTA
modifications: beta-Asp at position 10; Aib (2-aminoisobutyric acid) at position 29; C-terminal amide (NH2)
Question: B1 was tested. Which “EC50, production of cAMP in a cell base potency assay for functional PTH activity” value did it give?
Answer: 3.3 ng/mL

Question: Which “EC50, production of cAMP in a cell base potency assay for functional PTH activity” value does the source give for AVSEHQLLHDKGKSIQDLRRRELLEKLLXKLHTA (Aib (2-aminoisobutyric acid) at position 29; C-terminal amide (NH2)) [abaloparatide ([Glu22,25, Leu23,28,31, Aib29, Lys26,30]hPTHrP(1-34)NH2)] here?
Answer: 0.325 ng/mL
